Measurements published in publication PMC4729957, “The Atg1–kinase complex tethers Atg9-vesicles to initiate autophagy” (Nature Communications, 2016).

B7: Atg9^core (Atg9^281–779), reconstituted in proteoliposomes (domain or fragment, S. cerevisiae, UniProt Q12142 281-779, looked up)
chain: EDRINTLSVKERALWKWANVENLDIFLQDVYNYYLGNGFYCIILEKILNICTLLFVVFVSTYMGHCVDYSKLPTSHRVSDIIIDKCYSNSITGFTKFFLWMFYFFVILKIVQLYFDVQKLSELQNFYKYLLNISDDELQTLPWQNVIQQLMYLKDQNAMTANVVEVKAKNRIDAHDVANRIMRRENYLIALYNSDILNLSLPIPLFRTNVLTKTLEWNINLCVMGFVFNESGFIKQSILKPSQREFTREELQKRFMLAGFLNIILAPFLVTYFVLLYFFRYFNEYKTSPGSIGARQYTPIAEWKFREYNELYHIFKKRISLSTTLANKYVDQFPKEKTNLFLKFVSFICGSFVAILAFLTVFDPENFLNFEITSDRSVIFYITILGAIWSVSRNTITQEYHVFDPEETLKELYEYTHYLPKEWEGRYHKEEIKLEFCKLYNLRIVILLRELTSLMITPFVLWFSLPSSAGRIVDFFRENSEYVDGLGYVCKYAMFNMKN
notes: Atg9, S. cerevisiae BY4741, conserved core region, residues 281–779; modified pET28a(+) vector; about 50% of the protein in the proteoliposomes has its cytoplasmic domains outside; liposomes of cholesterol, POPE, POPC, POPS, without PI; also called Atg9–PLs; Atg9-PL; source: E. coli Rosetta, solubilised in LDAO, purified (Ni-NTA, SEC), reconstituted in liposomes; not shown: His tag, C-terminal, …

Columns and labels:
[1] = target: pentameric Atg1–kinase complex (Atg1^PC) (S. cerevisiae) (UniProt P53104); assay: SEC-MALS; Atg1^PC injected at 3.4 mg ml^−1, 100 μl, Superose-6 10/300GL
Atg1–Atg13 subcomplex = target: T1, Atg1–Atg13 subcomplex (S. cerevisiae, UniProt P53104 1-897; Q06628 1-738, phosphothreonine at 226 (T226)); assay: SEC; complexes assembled from purified subunits or subcomplexes, 30 min at room temperature, then gel filtration on Superose 6; conditions: both partners purified
T1 construct: Atg1, S. cerevisiae BY4741; Atg13, S. cerevisiae BY4741; source: assembled from purified subunits (Atg1 from High Five cells, Atg13 from E. coli Rosetta), gel filtration on Superose 6
T1 sequence (P53104 whole entry, chain 1 of 2): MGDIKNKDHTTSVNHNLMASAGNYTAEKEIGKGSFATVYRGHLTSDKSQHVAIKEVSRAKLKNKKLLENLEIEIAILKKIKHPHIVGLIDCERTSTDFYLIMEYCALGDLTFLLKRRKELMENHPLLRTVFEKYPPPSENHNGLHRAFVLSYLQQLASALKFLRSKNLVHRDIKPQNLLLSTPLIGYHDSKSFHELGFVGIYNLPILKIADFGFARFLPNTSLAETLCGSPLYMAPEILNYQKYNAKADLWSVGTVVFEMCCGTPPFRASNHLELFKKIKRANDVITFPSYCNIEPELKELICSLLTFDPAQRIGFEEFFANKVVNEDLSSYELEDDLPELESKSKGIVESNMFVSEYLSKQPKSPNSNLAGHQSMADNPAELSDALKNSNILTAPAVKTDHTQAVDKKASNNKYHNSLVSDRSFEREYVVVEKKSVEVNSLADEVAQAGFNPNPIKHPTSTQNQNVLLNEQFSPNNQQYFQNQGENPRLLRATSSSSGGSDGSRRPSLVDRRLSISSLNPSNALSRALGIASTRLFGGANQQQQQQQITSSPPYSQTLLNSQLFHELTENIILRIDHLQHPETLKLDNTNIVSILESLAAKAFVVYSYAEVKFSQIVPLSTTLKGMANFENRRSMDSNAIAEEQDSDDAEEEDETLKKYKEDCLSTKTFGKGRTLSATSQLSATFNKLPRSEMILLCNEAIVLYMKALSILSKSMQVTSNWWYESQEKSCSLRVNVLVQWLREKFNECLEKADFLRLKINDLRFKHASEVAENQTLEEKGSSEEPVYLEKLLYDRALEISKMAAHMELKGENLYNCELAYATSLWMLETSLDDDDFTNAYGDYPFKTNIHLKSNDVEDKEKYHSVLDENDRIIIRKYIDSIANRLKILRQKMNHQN
T1 sequence (Q06628 whole entry, chain 2 of 2): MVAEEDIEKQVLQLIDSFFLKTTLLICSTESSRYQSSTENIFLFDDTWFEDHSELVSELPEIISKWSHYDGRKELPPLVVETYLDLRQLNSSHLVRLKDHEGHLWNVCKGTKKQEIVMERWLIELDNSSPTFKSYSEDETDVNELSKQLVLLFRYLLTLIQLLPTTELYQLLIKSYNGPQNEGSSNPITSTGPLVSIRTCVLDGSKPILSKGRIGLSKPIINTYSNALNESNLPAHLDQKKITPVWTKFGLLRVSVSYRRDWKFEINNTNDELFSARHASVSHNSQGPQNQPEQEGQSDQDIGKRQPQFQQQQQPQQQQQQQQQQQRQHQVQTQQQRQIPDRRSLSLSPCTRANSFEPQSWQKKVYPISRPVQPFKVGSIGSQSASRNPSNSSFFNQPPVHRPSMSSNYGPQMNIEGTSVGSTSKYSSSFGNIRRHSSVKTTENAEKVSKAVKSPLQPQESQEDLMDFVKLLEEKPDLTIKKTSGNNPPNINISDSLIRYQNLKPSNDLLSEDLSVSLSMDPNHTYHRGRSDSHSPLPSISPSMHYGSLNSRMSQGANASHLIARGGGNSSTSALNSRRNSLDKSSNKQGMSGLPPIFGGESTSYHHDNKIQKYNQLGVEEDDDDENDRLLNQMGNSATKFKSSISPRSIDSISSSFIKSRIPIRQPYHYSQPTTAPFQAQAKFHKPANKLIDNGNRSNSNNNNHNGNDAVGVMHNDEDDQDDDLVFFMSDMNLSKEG

[2] = target: the molecule itself; assay: dynamic light scattering; Stokes radii (RH) of the purified proteins and complexes in solution
[3] = target: T2, Atg9^core (Atg9^281–779), reconstituted in proteoliposomes (S. cerevisiae) (UniProt Q12142)
T2 sequence: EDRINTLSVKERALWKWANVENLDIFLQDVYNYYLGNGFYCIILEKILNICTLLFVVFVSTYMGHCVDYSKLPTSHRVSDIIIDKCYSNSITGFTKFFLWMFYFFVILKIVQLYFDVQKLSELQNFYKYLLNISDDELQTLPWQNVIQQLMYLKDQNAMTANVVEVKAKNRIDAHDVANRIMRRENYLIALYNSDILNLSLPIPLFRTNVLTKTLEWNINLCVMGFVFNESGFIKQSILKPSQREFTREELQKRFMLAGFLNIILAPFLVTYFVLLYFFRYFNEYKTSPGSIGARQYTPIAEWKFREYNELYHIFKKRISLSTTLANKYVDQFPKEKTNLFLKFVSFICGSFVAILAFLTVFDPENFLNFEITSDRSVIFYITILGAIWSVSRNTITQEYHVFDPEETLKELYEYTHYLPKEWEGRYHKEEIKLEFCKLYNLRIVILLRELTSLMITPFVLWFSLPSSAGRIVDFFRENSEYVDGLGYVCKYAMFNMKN

[4] = target: B7; assay: co-floatation with proteoliposomes; Atg9 variant held in proteoliposomes (synthetic lipids without PI), partner in solution at 1:1, Nycodenz step gradient, 650,000g 2 h at 4 °C, 25 mM HEPES pH 7.0, 100 mM NaCl; top fraction read by SDS–PAGE or α-myc immunoblot; conditions: both partners purified
[5] = target: the molecule itself; assay: not stated; recombinantly expressed Atg17 fragment; how the dimer was shown is not told
[6] = target: T3, Atg17^TC (myc-tagged Atg17) with Atg13 alone (S. cerevisiae, UniProt Q06628 1-738; Q06410 1-417; Q12421 1-196; Q12092 1-213); assay: co-floatation with proteoliposomes; Atg9 variant held in proteoliposomes (synthetic lipids without PI), partner in solution at 1:1, Nycodenz step gradient, 650,000g 2 h at 4 °C, 25 mM HEPES pH 7.0, 100 mM NaCl; top fraction read by SDS–PAGE or α-myc immunoblot; conditions: both partners purified
T3 construct: Atg13, S. cerevisiae BY4741; Atg17, S. cerevisiae BY4741; Atg31, S. cerevisiae BY4741; Atg29, S. cerevisiae BY4741; it was not isolated as such; also called Atg17^TC in the presence of Atg13; source: purified Atg13 combined with purified Atg17^TC; not shown: myc, C-terminal, kept; copies: + 2 + 2 + 2
T3 sequence (Q06628 whole entry, one chain of several): as the sequence (Q06628 whole entry, chain 2 of 2) above

[7] = target: T4, Atg1^PC with myc-tagged Atg17 (S. cerevisiae, UniProt P53104 1-897; Q06628 1-738; Q06410 1-417; Q12421 1-196; Q12092 1-213, phosphothreonine at 226 (T226)); assay: as above; conditions: both partners purified
T4 construct: Atg1, S. cerevisiae BY4741; Atg13, S. cerevisiae BY4741; Atg17, S. cerevisiae BY4741; Atg31, S. cerevisiae BY4741; Atg29, S. cerevisiae BY4741; the form detected by α-myc immunoblot in the co-floatation experiments; also called Atg17^TC combined with Atg1–Atg13; source: purified Atg1–Atg13 combined with purified Atg17^TC; not shown: myc, C-terminal, kept; copies: 2 + 2 + 2 + 2 + 2
T4 sequence (P53104 whole entry, chain 1 of 2): as the sequence (P53104 whole entry, chain 1 of 2) above
T4 sequence (Q06628 whole entry, chain 2 of 2): as the sequence (Q06628 whole entry, chain 2 of 2) above

For “pentameric Atg1–kinase complex (Atg1^PC), P53104 1-897; Q06628 1-738; Q06410 1-417; Q12421 1-196; Q12092 1-213”, the stoichiometry N [1] was 2.

B1: Atg17–Atg31–Atg29 trimeric complex (Atg17^TC) (complex, S. cerevisiae)
chain 1: MNEADVTKFVNNARKTLTDAQLLCSSANLRIVDIKKKLSSWQLSISKLNFLIVGLRQQGKFLYTILKEGIGTKLIQKQWNQAVLVVLVDEMKYWQYEITSKVQRLDGIVNELSISEKDDTDPSKLGDYISRDNVNLLNDKLKEVPVIERQIENIKLQYENMVRKVNKELIDTKLTDVTQKFQSKFGIDNLMETNVAEQFSRELTDLEKDLAEIMNSLTQHFDKTLLLQDKKIDNDEREELFKVVQGDDKELYNIFKTLHEVIDDVDKTILNLGQFLQAKIKEKTELHSEVSEIINDFNRNLEYLLIFKDISNLIDSFKNSCTQDIQTTKELCEFYDNFEESYGNLVLEAKRRKDVANRMKTILKDCEKQLQNLDAQDQEERQNFIAENGTYLPETIWPGKIDDFSSLYTLNYNVKNP
chain 2: MNVTVTVYDKNVKYRLEENIKNNKGPSNDDQPAYNNESKSTDGSDYAMFPTNIKYIFEDNNDELVDSSDAALTAGIDKVGDELENVIIVQLDESGSLEDITLISDQYELLSHRTNSLSLEENQMRTLSSHGDDKSNDEEEELSVDSDRFRVDSDIELDVISQFCDLSPFLRDLSLNDLIKLYVTQNEQLQMLSNSV
chain 3: MIMNSTNTVVYIKVKGRRPQGFLDPPKFEWNGTKERQLWTMVSNLNYSQDQIDWQNLSKIFETPEFFLKKRTYKLFAEHLELLQLQLEKKRDLEKYSNDQVNEGMSDLIHKYTPTLQNDNLLNVSASPLTTERQDSEEVETEVTNEALQHLQTSKILNIHKKTSDSENKPNDKLDKDGINKEMECGSSDDDLSSSLSVSKSALEEALMDRLQF
notes: Atg17, S. cerevisiae BY4741; Atg31, S. cerevisiae BY4741; Atg29, S. cerevisiae BY4741; dimer of trimers through Atg17; also produced by combining Atg17 with co-expressed Atg31–Atg29; also called Atg17-Atg31–Atg29 complex; source: E. coli Rosetta, co-expressed from pST39, purified (Ni-NTA, SEC); not shown: His6, N-terminal, cleaved; copies: 2 + 2 + 2
In the case of B1, the binding result (Atg1–Atg13 subcomplex) is reported as “binds”, the “stoichiometry N” value [2] is reported as 2 and the RH of Atg9–PLs prepared in the presence of Atg17^TC, by DLS (vesicle tethering) [3] is reported as 72 nm.

B2: myc-tagged Atg17 (Atg17^myc), recombinant (natural protein, S. cerevisiae, UniProt Q06410 1-417, looked up)
chain: MNEADVTKFVNNARKTLTDAQLLCSSANLRIVDIKKKLSSWQLSISKLNFLIVGLRQQGKFLYTILKEGIGTKLIQKQWNQAVLVVLVDEMKYWQYEITSKVQRLDGIVNELSISEKDDTDPSKLGDYISRDNVNLLNDKLKEVPVIERQIENIKLQYENMVRKVNKELIDTKLTDVTQKFQSKFGIDNLMETNVAEQFSRELTDLEKDLAEIMNSLTQHFDKTLLLQDKKIDNDEREELFKVVQGDDKELYNIFKTLHEVIDDVDKTILNLGQFLQAKIKEKTELHSEVSEIINDFNRNLEYLLIFKDISNLIDSFKNSCTQDIQTTKELCEFYDNFEESYGNLVLEAKRRKDVANRMKTILKDCEKQLQNLDAQDQEERQNFIAENGTYLPETIWPGKIDDFSSLYTLNYNVKNP
notes: Atg17, S. cerevisiae BY4741, open reading frame from genomic DNA; expressed from pST39 with a myc-tag at the C-terminus of Atg17; also called recombinant myc-tagged Atg17; source: E. coli Rosetta, purified; not shown: myc, C-terminal, kept
B2: binds [4].

B3: Atg17^1–354-Atg31–Atg29 (Atg17^monoTC) (complex, S. cerevisiae)
chain 1: MNEADVTKFVNNARKTLTDAQLLCSSANLRIVDIKKKLSSWQLSISKLNFLIVGLRQQGKFLYTILKEGIGTKLIQKQWNQAVLVVLVDEMKYWQYEITSKVQRLDGIVNELSISEKDDTDPSKLGDYISRDNVNLLNDKLKEVPVIERQIENIKLQYENMVRKVNKELIDTKLTDVTQKFQSKFGIDNLMETNVAEQFSRELTDLEKDLAEIMNSLTQHFDKTLLLQDKKIDNDEREELFKVVQGDDKELYNIFKTLHEVIDDVDKTILNLGQFLQAKIKEKTELHSEVSEIINDFNRNLEYLLIFKDISNLIDSFKNSCTQDIQTTKELCEFYDNFEESYGNLVLEAKRRKD
chain 2: MNVTVTVYDKNVKYRLEENIKNNKGPSNDDQPAYNNESKSTDGSDYAMFPTNIKYIFEDNNDELVDSSDAALTAGIDKVGDELENVIIVQLDESGSLEDITLISDQYELLSHRTNSLSLEENQMRTLSSHGDDKSNDEEEELSVDSDRFRVDSDIELDVISQFCDLSPFLRDLSLNDLIKLYVTQNEQLQMLSNSV
chain 3: MIMNSTNTVVYIKVKGRRPQGFLDPPKFEWNGTKERQLWTMVSNLNYSQDQIDWQNLSKIFETPEFFLKKRTYKLFAEHLELLQLQLEKKRDLEKYSNDQVNEGMSDLIHKYTPTLQNDNLLNVSASPLTTERQDSEEVETEVTNEALQHLQTSKILNIHKKTSDSENKPNDKLDKDGINKEMECGSSDDDLSSSLSVSKSALEEALMDRLQF
notes: Atg31, S. cerevisiae BY4741; Atg29, S. cerevisiae BY4741; source: E. coli Rosetta, co-expressed from pST39, purified (Ni-NTA, SEC); not shown: His6, N-terminal, cleaved; copies: + +
B3: binds (Atg1–Atg13 subcomplex).

B4: thioredoxin-tagged Atg17^235–417 (domain or fragment, S. cerevisiae, UniProt Q06410 235-417, looked up)
chain: DEREELFKVVQGDDKELYNIFKTLHEVIDDVDKTILNLGQFLQAKIKEKTELHSEVSEIINDFNRNLEYLLIFKDISNLIDSFKNSCTQDIQTTKELCEFYDNFEESYGNLVLEAKRRKDVANRMKTILKDCEKQLQNLDAQDQEERQNFIAENGTYLPETIWPGKIDDFSSLYTLNYNVKNP
notes: source: E. coli Rosetta, purified
In the case of B4, the “stoichiometry N” value [5] is reported as 2 and the binding result [4] is reported as “binds”.

B5: thioredoxin-tagged Atg17^354–417 (domain or fragment, S. cerevisiae, UniProt Q06410 354-417, looked up)
chain: DVANRMKTILKDCEKQLQNLDAQDQEERQNFIAENGTYLPETIWPGKIDDFSSLYTLNYNVKNP
notes: also called dimerization domain; source: E. coli Rosetta, purified
B5: binds [4].

B6: thioredoxin-tagged Atg17^235–354 (domain or fragment, S. cerevisiae, UniProt Q06410 235-354, looked up)
chain: DEREELFKVVQGDDKELYNIFKTLHEVIDDVDKTILNLGQFLQAKIKEKTELHSEVSEIINDFNRNLEYLLIFKDISNLIDSFKNSCTQDIQTTKELCEFYDNFEESYGNLVLEAKRRKD
notes: as for B4
B6: binds [4].

B7: binds [6]; binds [7].
